Assay results: US20220251204A1 (AstraZeneca / MedImmune, published 2022)

Legend:
[1] = target: T1, CTLA-4-Fc (human recombinant protein, R&D Systems) (human, UniProt P16410 37-162); assay: Octet, same tip after PDL1-His and bispecific, then CTLA-4-Fc (100 nM per paragraph 296): concurrent binding
T1 construct: also called CTLA-4-Fc antigen; not shown: Fc part of the bought fusion
T1 sequence: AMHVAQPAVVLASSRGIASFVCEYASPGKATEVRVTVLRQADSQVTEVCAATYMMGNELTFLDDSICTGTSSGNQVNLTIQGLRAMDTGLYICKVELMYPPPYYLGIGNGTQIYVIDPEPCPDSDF

[2] = target: T2, human CTLA-4 expressed on cells (human, UniProt P16410 36-223); assay: cell-based or functional assay
T2 sequence: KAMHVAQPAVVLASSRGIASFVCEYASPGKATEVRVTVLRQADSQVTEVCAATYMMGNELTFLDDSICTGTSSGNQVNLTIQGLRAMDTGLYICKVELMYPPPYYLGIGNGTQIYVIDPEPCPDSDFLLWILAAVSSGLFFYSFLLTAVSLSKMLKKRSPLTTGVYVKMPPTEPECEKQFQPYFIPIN

[3] = target: T3, cynomolgus PD-1 (cynomolgus, UniProt B0LAJ3 25-170); assay: SPR, BIAcore T200; antibody captured on mouse anti-huIgG-Fab, antigen injected
T3 construct: also called cyno PD1

[4] = target: T4, human TIM3 (soluble) (human, UniProt Q8TDQ0 22-202); assay: as above
T4 construct: also called Biotinylated human TIM3
T4 sequence: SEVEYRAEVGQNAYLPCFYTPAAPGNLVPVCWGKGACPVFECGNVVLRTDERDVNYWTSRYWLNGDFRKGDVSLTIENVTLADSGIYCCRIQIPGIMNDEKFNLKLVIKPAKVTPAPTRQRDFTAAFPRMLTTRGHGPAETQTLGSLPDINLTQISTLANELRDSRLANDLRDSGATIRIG

[5] = target: T5, cynomolgus TIM3 (cynomolgus, UniProt A0A2K5U3G7 22-195); assay: as above
T5 construct: also called Cyno TIM3
T5 sequence: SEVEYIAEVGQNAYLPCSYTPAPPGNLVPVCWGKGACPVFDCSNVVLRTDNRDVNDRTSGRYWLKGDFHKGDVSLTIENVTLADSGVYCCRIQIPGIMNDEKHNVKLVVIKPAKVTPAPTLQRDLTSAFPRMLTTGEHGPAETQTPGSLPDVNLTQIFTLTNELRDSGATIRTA

[6] = target: T6, human PD-1 antigen (soluble) (human, UniProt Q15116 25-170); assay: as above
T6 construct: also called hu PD1; Biotinylated human PD-1

[7] = target: T7, human PD-1 expressed on cells (human, UniProt Q15116 25-288); assay: flow cytometry, HumanPD1 CHO cells, x axis hIgG1TM mAb (nM)
T7 construct: also called CHO cells overexpressing human PD1
T7 sequence (Q15116 25-288 limits assumed): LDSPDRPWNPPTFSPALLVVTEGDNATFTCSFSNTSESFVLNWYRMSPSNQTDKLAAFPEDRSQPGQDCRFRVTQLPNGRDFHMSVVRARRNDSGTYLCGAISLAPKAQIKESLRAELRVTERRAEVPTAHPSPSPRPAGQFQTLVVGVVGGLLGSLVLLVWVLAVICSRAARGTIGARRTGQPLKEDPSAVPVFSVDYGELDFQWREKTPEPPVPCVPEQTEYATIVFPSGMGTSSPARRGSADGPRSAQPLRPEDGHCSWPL

T6 sequence (Q15116 25-170 limits assumed): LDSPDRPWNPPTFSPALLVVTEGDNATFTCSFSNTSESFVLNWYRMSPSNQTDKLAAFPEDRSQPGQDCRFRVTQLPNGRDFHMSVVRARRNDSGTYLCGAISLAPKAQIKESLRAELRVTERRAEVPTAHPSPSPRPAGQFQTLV
T3 sequence (B0LAJ3 entry or part of it limits assumed): as the sequence (Q15116 25-170 limits assumed) above, with D2E, P10A, V19L, T35A, Q75R, T144A counted along it

B1: Bis2 PD-L1/CTLA-4 (bispecific antibody, human IgG4 S228P, kappa)
heavy: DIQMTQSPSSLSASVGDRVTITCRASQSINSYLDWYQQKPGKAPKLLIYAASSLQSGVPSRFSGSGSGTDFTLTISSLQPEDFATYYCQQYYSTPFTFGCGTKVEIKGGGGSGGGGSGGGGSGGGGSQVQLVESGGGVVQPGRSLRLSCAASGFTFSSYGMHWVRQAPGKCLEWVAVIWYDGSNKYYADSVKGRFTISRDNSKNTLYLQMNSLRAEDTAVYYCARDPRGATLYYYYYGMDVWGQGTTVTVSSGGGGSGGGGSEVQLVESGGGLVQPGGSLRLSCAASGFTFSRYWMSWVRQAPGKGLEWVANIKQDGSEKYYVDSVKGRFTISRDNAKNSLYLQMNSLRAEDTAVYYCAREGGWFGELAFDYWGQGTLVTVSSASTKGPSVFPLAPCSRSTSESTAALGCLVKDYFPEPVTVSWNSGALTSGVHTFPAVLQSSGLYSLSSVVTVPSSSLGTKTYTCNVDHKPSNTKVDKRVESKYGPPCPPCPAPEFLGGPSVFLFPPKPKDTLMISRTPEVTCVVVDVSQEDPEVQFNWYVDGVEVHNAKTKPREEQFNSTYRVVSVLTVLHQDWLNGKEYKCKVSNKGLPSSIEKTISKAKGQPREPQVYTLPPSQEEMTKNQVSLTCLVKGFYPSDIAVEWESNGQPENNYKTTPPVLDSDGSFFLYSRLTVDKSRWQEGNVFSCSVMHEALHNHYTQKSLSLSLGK
light: EIVLTQSPGTLSLSPGERATLSCRASQRVSSSYLAWYQQKPGQAPRLLIYDASSRATGIPDRFSGSGSGTDFTLTISRLEPEDFAVYYCQQYGSLPWTFGQGTKVEIKRTVAAPSVFIFPPSDEQLKSGTASVVCLLNNFYPREAKVQWKVDNALQSGNSQESVTEQDSKDSTYSLSSTLTLSKADYEKHKVYACEVTHQGLSSPVTKSFNRGEC
- binding result [1]: binds

B2: Bis5 PD-L1/CTLA-4 (bispecific antibody, human IgG4 S228P, kappa)
heavy: EVQLVESGGGLVQPGGSLRLSCAASGFTFSRYWMSWVRQAPGKGLEWVANIKQDGSEKYYVDSVKGRFTISRDNAKNSLYLQMNSLRAEDTAVYYCAREGGWFGELAFDYWGQGTLVTVSSASTKGPSVFPLAPCSRSTSESTAALGCLVKDYFPEPVTVSWNSGALTSGVHTFPAVLQSSGLYSLSSVVTVPSSSLGTKTYTCNVDHKPSNTKVDKRVESKYGPPCPPCPAPEFLGGPSVFLFPPKPKDTLMISRTPEVTCVVVDVSQEDPEVQFNWYVDGVEVHNAKTKPREEQFNSTYRVVSVLTVLHQDWLNGKEYKCKVSNKGLPSSIEKTISKAKGQPREPQVYTLPPSQEEMTKNQVSLTCLVKGFYPSDIAVEWESNGGGGSGGGGSDIQMTQSPSSLSASVGDRVTITCRASQSINSYLDWYQQKPGKAPKLLIYAASSLQSGVPSRFSGSGSGTDFTLTISSLQPEDFATYYCQQYYSTPFTFGCGTKVEIKGGGGSGGGGSGGGGSGGGGSQVQLVESGGGVVQPGRSLRLSCAASGFTFSSYGMHWVRQAPGKCLEWVAVIWYDGSNKYYADSVKGRFTISRDNSKNTLYLQMNSLRAEDTAVYYCARDPRGATLYYYYYGMDVWGQGTTVTVSSGGGGSGGGGSGQPENNYKTTPPVLDSDGSFFLYSRLTVDKSRWQEGNVFSCSVMHEALHNHYTQKSLSLSLGK
light: EIVLTQSPGTLSLSPGERATLSCRASQRVSSSYLAWYQQKPGQAPRLLIYDASSRATGIPDRFSGSGSGTDFTLTISRLEPEDFAVYYCQQYGSLPWTFGQGTKVEIKRTVAAPSVFIFPPSDEQLKSGTASVVCLLNNFYPREAKVQWKVDNALQSGNSQESVTEQDSKDSTYSLSSTLTLSKADYEKHKVYACEVTHQGLSSPVTKSFNRGEC
- binding result [1]: binds

B3: Bis3 PD-L1/CTLA-4 (bispecific antibody, human IgG4 S228P, kappa)
heavy: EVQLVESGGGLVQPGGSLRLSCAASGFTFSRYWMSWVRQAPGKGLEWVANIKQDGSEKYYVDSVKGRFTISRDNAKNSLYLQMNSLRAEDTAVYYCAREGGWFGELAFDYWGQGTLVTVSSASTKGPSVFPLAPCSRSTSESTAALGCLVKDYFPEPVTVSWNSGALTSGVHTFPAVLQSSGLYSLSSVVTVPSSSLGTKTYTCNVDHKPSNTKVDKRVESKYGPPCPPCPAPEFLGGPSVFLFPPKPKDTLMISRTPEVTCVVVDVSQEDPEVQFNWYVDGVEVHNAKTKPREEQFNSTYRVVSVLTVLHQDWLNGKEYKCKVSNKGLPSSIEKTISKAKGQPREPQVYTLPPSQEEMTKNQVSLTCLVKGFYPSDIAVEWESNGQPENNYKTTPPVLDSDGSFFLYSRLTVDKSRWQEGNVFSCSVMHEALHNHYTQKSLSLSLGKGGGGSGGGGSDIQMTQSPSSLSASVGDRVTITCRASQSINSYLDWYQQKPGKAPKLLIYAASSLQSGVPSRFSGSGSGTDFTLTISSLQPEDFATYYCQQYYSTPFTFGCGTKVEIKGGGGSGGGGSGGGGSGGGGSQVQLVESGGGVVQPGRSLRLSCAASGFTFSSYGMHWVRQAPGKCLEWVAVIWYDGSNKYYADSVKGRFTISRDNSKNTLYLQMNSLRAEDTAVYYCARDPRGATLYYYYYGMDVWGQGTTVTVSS
light: EIVLTQSPGTLSLSPGERATLSCRASQRVSSSYLAWYQQKPGQAPRLLIYDASSRATGIPDRFSGSGSGTDFTLTISRLEPEDFAVYYCQQYGSLPWTFGQGTKVEIKRTVAAPSVFIFPPSDEQLKSGTASVVCLLNNFYPREAKVQWKVDNALQSGNSQESVTEQDSKDSTYSLSSTLTLSKADYEKHKVYACEVTHQGLSSPVTKSFNRGEC
- binding result [1]: binds

B4: Bis5 PD-1/CTLA-4 (bispecific antibody, human IgG4 S228P, kappa)
heavy: EVQLVESGGGLVQPGGSLRLSCAASGFTFSDYGMHWVRQAPGKGLEWVAYISSGSYTIYSADSVKGRFTISRDNAKNSLYLQMNSLRAEDTAVYYCARRAPNSFYEYYFDYWGQGTTVTVSSASTKGPSVFPLAPCSRSTSESTAALGCLVKDYFPEPVTVSWNSGALTSGVHTFPAVLQSSGLYSLSSVVTVPSSSLGTKTYTCNVDHKPSNTKVDKRVESKYGPPCPPCPAPEFLGGPSVFLFPPKPKDTLMISRTPEVTCVVVDVSQEDPEVQFNWYVDGVEVHNAKTKPREEQFNSTYRVVSVLTVLHQDWLNGKEYKCKVSNKGLPSSIEKTISKAKGQPREPQVYTLPPSQEEMTKNQVSLTCLVKGFYPSDIAVEWESNGGGGSGGGGSDIQMTQSPSSLSASVGDRVTITCRASQSINSYLDWYQQKPGKAPKLLIYAASSLQSGVPSRFSGSGSGTDFTLTISSLQPEDFATYYCQQYYSTPFTFGCGTKVEIKGGGGSGGGGSGGGGSGGGGSQVQLVESGGGVVQPGRSLRLSCAASGFTFSSYGMHWVRQAPGKCLEWVAVIWYDGSNKYYADSVKGRFTISRDNSKNTLYLQMNSLRAEDTAVYYCARDPRGATLYYYYYGMDVWGQGTTVTVSSGGGGSGGGGSGQPENNYKTTPPVLDSDGSFFLYSRLTVDKSRWQEGNVFSCSVMHEALHNHYTQKSLSLSLGK
light: QIVLTQSPATLSLSPGERATLSCSASSKHTNLYWSRHMYWYQQKPGQAPRLLIYLTSNRATGIPARFSGSGSGTDFTLTISSLEPEDFAVYYCQQWSSNPFTFGQGTKLEIKRTVAAPSVFIFPPSDEQLKSGTASVVCLLNNFYPREAKVQWKVDNALQSGNSQESVTEQDSKDSTYSLSSTLTLSKADYEKHKVYACEVTHQGLSSPVTKSFNRGEC
- fold decrease in CTLA-4 reporter gene assay, potency [2]: ~3 fold

B5: PD-1(LO115)/TIM3(O13-1) DuetMab (bispecific antibody, human IgG1, kappa, lambda)
heavy 1: EVQLVESGGGLVQPGGSLRLSCAASGFTFSDYGMHWVRQAPGKGLEWVAYISSGSYTIYSADSVKGRFTISRDNAKNSLYLQMNSLRAEDTAVYYCARRAPNSFYEYYFDYWGQGTTVTVSSASTKGPSVFPLAPSSKSTSGGTAALGCLVKDYFPEPVTVSWNSGALTSGVHTFPAVLQSSGLYSLSSVVTVPSSSLGTQTYICNVNHKPSNTKVDKRVEPKSCDKTHTCPPCPAPEFEGGPSVFLFPPKPKDTLMISRTPEVTCVVVDVSHEDPEVKFNWYVDGVEVHNAKTKPREEQYNSTYRVVSVLTVLHQDWLNGKEYKCKVSNKALPASIEKTISKAKGQPREPQVCTLPPSREEMTKNQVSLSCAVKGFYPSDIAVEWESNGQPENNYKTTPPVLDSDGSFFLVSKLTVDKSRWQQGNVFSCSVMHEALHNHYTQKSLSLSPGK
light 1: QIVLTQSPATLSLSPGERATLSCSASSKHTNLYWSRHMYWYQQKPGQAPRLLIYLTSNRATGIPARFSGSGSGTDFTLTISSLEPEDFAVYYCQQWSSNPFTFGQGTKLEIKRTVAAPSVFIFPPSDEQLKSGTASVVCLLNNFYPREAKVQWKVDNALQSGNSQESVTEQDSKDSTYSLSSTLTLSKADYEKHKVYACEVTHQGLSSPVTKSFNRGEC
heavy 2: not shown
light 2: SYVLTQPPSVSVAPGKTARITCGGDNIGGKSVHWYQQKPGQAPVLVIYYDSDRPSGIPERFSGSNSGNTATLTISRVEAGDEADYYCQVLDRRSDHFLFGGGTKLTVLGQPKAAPSVTLFPPCSEELQANKATLVCLISDFYPGAVTVAWKADSSPVKAGVETTTPSKQSNNKYAASSYLSLTPEQWKSHRSYSCQVTHEGSTVEKTVAPTEVS
notes: also called PD-1/TIM3 DuetMab
- Kd [3]: 0.44 nM
- koff [3]: 0.000215 s⁻¹
- kon [3]: 490000 M⁻¹ s⁻¹
- Kd [4]: 4.15 nM
- koff [4]: 0.00813 s⁻¹
- kon [4]: 1.96e+06 M⁻¹ s⁻¹
- Kd [5]: 25.6 nM
- koff [5]: 0.0761 s⁻¹
- kon [5]: 2.98e+06 M⁻¹ s⁻¹
- Kd [6]: 0.81 nM
- koff [6]: 0.000236 s⁻¹
- kon [6]: 295000 M⁻¹ s⁻¹

B6: BiS3 PD-1(LO115)/TIM3(O13-1) (bispecific antibody, human IgG1, kappa)
heavy: EVQLVESGGGLVQPGGSLRLSCAASGFTFSDYGMHWVRQAPGKGLEWVAYISSGSYTIYSADSVKGRFTISRDNAKNSLYLQMNSLRAEDTAVYYCARRAPNSFYEYYFDYWGQGTTVTVSSASTKGPSVFPLAPSSKSTSGGTAALGCLVKDYFPEPVTVSWNSGALTSGVHTFPAVLQSSGLYSLSSVVTVPSSSLGTQTYICNVNHKPSNTKVDKRVEPKSCDKTHTCPPCPAPEFEGGPSVFLFPPKPKDTLMISRTPEVTCVVVDVSHEDPEVKFNWYVDGVEVHNAKTKPREEQYNSTYRVVSVLTVLHQDWLNGKEYKCKVSNKALPASIEKTISKAKGQPREPQVYTLPPSREEMTKNQVSLTCLVKGFYPSDIAVEWESNGQPENNYKTTPPVLDSDGSFFLYSKLTVDKSRWQQGNVFSCSVMHEALHNHYTQKSLSLSPGKGGGGSGGGGSEVQLLESGGGLVQPGGSLRLSCAASGFTFSSYAMSWVRQAPGKCLEWVSAISGSGGSTYYADSVKGRFTISRDNSKNTLYLQMNSLRAEDTAVYYCARGSYGTYYGNYFEYWGQGTLVTVSSGGGGSGGGGSGGGGSGGGGSSYVLTQPPSVSVAPGKTARITCGGDNIGGKSVHWYQQKPGQAPVLVIYYDSDRPSGIPERFSGSNSGNTATLTISRVEAGDEADYYCQVLDRRSDHFLFGCGTKLTVL
light: QIVLTQSPATLSLSPGERATLSCSASSKHTNLYWSRHMYWYQQKPGQAPRLLIYLTSNRATGIPARFSGSGSGTDFTLTISSLEPEDFAVYYCQQWSSNPFTFGQGTKLEIKRTVAAPSVFIFPPSDEQLKSGTASVVCLLNNFYPREAKVQWKVDNALQSGNSQESVTEQDSKDSTYSLSSTLTLSKADYEKHKVYACEVTHQGLSSPVTKSFNRGEC
notes: also called PD-1/TIM3 BiS3
- EC50 (read off the curve) [7]: ~4 nM

B7: LO115 IgG1-TM (antibody, V domains shown)
VH: EVQLVESGGGLVQPGGSLRLSCAASGFTFSDYGMHWVRQAPGKGLEWVAYISSGSYTIYSADSVKGRFTISRDNAKNSLYLQMNSLRAEDTAVYYCARRAPNSFYEYYFDYWGQGTTVTVSS
VL: QIVLTQSPATLSLSPGERATLSCSASSKHTNLYWSRHMYWYQQKPGQAPRLLIYLTSNRATGIPARFSGSGSGTDFTLTISSLEPEDFAVYYCQQWSSNPFTFGQGTKLEIK
notes: also called parental LO115 IgG1
- Kd [3]: 0.81 nM
- koff [3]: 0.000238 s⁻¹
- kon [3]: 346000 M⁻¹ s⁻¹
- Kd [6]: 0.79 nM
- koff [6]: 0.000237 s⁻¹
- kon [6]: 302000 M⁻¹ s⁻¹
